Source: patent publication US20070185028A1, “Compositions and methods for treatment of protein misfolding and protein aggregation diseases” (priority 2004, published 2007)

Assays:
Aβ = Aβ (Homo sapiens, UniProt P05067); assay: Aβ Thioflavin T fluorescence (fibrillization, 50° C., 72 hours); format: biochemical; details: 1:10 Aβ:peptide; for effect on the fibrillization of Aβ (ranking): 72 hrs; for Δfluorescence (Aβ): Thioflavin T, 50° C., 72 hours
Description: Aβ Thioflaviin T fluorescence. Aβ fibrils were grown in the presence and absence of αB crystallin and peptides in conditions similar to that previously described for the presence of αB crystallin. Bakthisaran et al., Biochem J, 2005. Peptides were dissolved to 9.1 mM in trifluorethanol (TFE) and diluted to 0.91 mM stock solutions in 50 mM PBS, 100 mM NaCl, pH 7.4. 3.5 mg of Thioflavin T was dissolved in 100 μl of 50 mM Glycine pH 8.5. A stock solution of 1 mg/ml (0.22 mM) Aβ was prepared. 20 μl Aβ, 50 μl chaperone, 2 μl Thioflavin T was mixed with 28 μl 50 mM PBS, 100 mM NaCl, pH 7.4. Fluorescence was read using a Beckman Coultier DTX 880 multimode detector. Samples were heated at 50° C. for 72 hours and fluorescence was read again.
The fibrillization of Aβ was measured as fluorescence of the fluorescent dye Thioflavin T from solutions containing 1:10 monomeric molar ratio of Aβ:peptide. In the absence of Aβ fibrils, Thioflavin T had little or no fluorescence. The fluorescence of the Thioflavin T bound to Aβ fibrils in the absence of any other molecule after 72 hrs was set to 100%. […] Fibril formation=ΔfluorescenceAβ (with chaperone)*100/ΔfluorescenceAβ (without chaperone).

γD crystallin = target: T1, γD crystallin (Homo sapiens, UniProt P07320); assay: γD crystallin Thioflavin T fluorescence (fibrillization); format: biochemical; details: 1:1 γD crystallin:peptide; for Δfluorescence (γD crystallin): Thioflavin T, 50° C., 72 hours
T1 sequence (P07320 2-174): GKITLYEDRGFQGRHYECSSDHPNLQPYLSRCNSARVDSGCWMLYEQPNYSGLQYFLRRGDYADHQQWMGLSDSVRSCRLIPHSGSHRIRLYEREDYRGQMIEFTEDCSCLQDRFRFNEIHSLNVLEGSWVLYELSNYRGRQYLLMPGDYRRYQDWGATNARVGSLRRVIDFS
Description: γD crystallin Thioflaviin T fluorescence. γD crystallin fibrils were formed in a similar way to that of γ crystalline. Meehan et al., J Biol Chem 279: 3413-3419, 2004. Peptides were dissolved to 9.1 mM in TFE and diluted to 0.91 mM stock solutions in 10% TFE, pH 2.0. 3.5 mg of Thioflavin T was dissolved in 100 μl of 50 mM Glycine pH 8.5. A stock solution of 1 mg/ml (0.22 mM) Aβ was prepared. 20 μl Aβ, 5 μl chaperone, 2 μl Thioflavin T was mixed with 73 μl 10% TFE, pH 2.0. Fluorescence was read using a Beckman Coultier DTX 880 multimode detector. Samples were heated at 50° C. for 72 hours and fluorescence was read again.
The fibrillization of γD crystallin was measured as fluorescence of the fluorescent dye Thioflavin T from solutions containing 1:1 monomeric molar ratio of γD crystallin:peptide. In the absence of fibrils Thioflavin T had little or no fluorescence. The fluorescence of the Thioflavin T bound to γD crystallin fibrils in the absence of any other molecule after 72 hrs was set to 100%. […] Fibril formation=ΔfluorescenceγD crystallin (with chaperone)*100/ΔfluorescenceγD crystallin (without chaperone).

beta amyloid = beta amyloid (Homo sapiens, UniProt P05067); assay: αB crystallin protein pin array, binding of beta amyloid; details: immobilized 8-mer peptide; absorption at 450 nm

Sequence | effect on the fibrillization of Aβ (ranking) (Aβ) | Δfluorescence (Aβ) (Aβ) | Δfluorescence (γD crystallin) (γD crystallin) | binding of beta amyloid in the protein pin assay (beta amyloid) | effect on the fibrillization of γD crystallin (ranking) (γD crystallin; 72 hrs)
DRFSVNLDVKHFS | strongest effect | 264,396,672 | 661,038,176 |  | 
ERTIPITRE |  | 576,742,720 | 611,017,728 |  | 
FSVNLDVK [Peptide 38] |  |  |  | positive | 
HGKHEERQDE | weakest effect | 796,478,624 | 734,394,240 |  | 
LTITSSLS [Peptide 66] |  |  |  | positive | 
LTITSSLSSDGV |  | 352,301,312 | 675,352,992 |  | 
STSLSPFYLRPPSFLRAP |  | 478,389,568 | 606,290,176 |  | strongest effect
WIRRPFFP [Peptide 5] |  |  |  | positive | 
